The subject of one assay is mob-5. Kind of assay: Differential display of Rat-1(ras) cells with or without PD98059. The assay is classed as cell-based. The settings on record: 10 μM for 24 hours. The method, then: (B) Identification of mob-5 as a gene activated by oncogenic h-ras but inactivated by MAP kinase inhibitor, PD98059. Total cellular RNA from the normal Rat-1 cells and their oncogenic h-ras transformed derivatives Rat-1(ras) treated with or without 10 μM of PD98059 for 24 hours were compared by differential display. The same primer combination as used in (A) identified the mob-5 (arrow) again as a candidate gene activated by ras but inhibited by ras downstream MAP kinase inhibitor.
RNA purification, automated differential display screening and Northern blot analysis Total RNA from cells were purified using the RNApure reagent following the manufacture instruction (GenHunter Corp., Nashville, Tenn.). DNase I treatment of RNA prior to differential display was carried out using the MessageClean kit (GenHunter Corp., Nashville, Tenn.). Differential display PCR reactions were setup in 96-well PCR plates (Perkin-Elmer) by the Beckman Biomek 2000 automated liquid dispensing workstation using one-base anchored oligo-dT primers and rationally designed arbitrary 13mers (Liang et al., 1994b) from the RNAimage kits (GenHunter Corp., Nashville, Tenn.). The cDNAs were amplified in the presence of ^33P [(α-dATP] (New England Nuclear, Boston, Mass.) using Taq DNA polymerase (Qiagene) and separated on 6 % denaturing polyacrylamide gels (National Diagnostic, Atlanta, Ga.). […]

The subject of assay [1] is putative Mob-5 receptor on the cell surface of h-ras transformed Rat-1 cells. Kind of assay: Mob-5-AP receptor binding assay on Rat-1 cells before and after h-ras transformation. The settings on record: normal versus h-ras transformed Rat-1 cells, media at 0.7 unit/ml. The method, then: Both the normal and oncogenic h-ras transformed Rat-1 cells were analyzed for the ability to bind Mob-5-AP versus AP alone. The cell surface bound AP activity was measured to reveal a Mob-5 mediated-binding activity present only on the cell surface of the h-ras transformed cells. The result is representative of at least 5 independent experiments.
Identification of a putative receptor(s) of Mob-5 on the cell surface of h-ras transformed cells Another possible mechanism for Mob-5 function is that Mob-5 acts as an autocrine growth factor downstream of activated Ras. Ras transformed RIE cells can be used in a receptor binding assay. APtag technology (Flanagan and leder, 1990) was employed to create a Mob-5-alkaline phosphatase (AP) fusion protein, which can be used as an affinity agent for the receptor analysis. This strategy has been successfully used to identify and clone a number of important cell surface receptors, including those of leptin (Tartaglia et al., 1995) and semaphorin III (He and Tessier-Lavigne, 1997). Like Mob-5 itself, Mob-5-AP was secreted at high levels in 293T cells stably transfected with the recombinant plasmid. The secreted 90 KD Mob-5-AP can be readily detected from the culture media by either the alkaline phosphatase assay or direct Western blot analysis using anti-Mob-5 antibody (FIG. 4A). […]

The subject of assay [2] is putative Mob-5 receptor on the cell surface of h-ras transformed RIE cells. Description: AP fusion protein receptor binding assay on RIE cells before and after h-ras transformation. The conditions noted are these: normal versus h-ras transformed RIE cells, media at 0.7 unit/ml. On the set-up: species or system rat. The method, then:
(E) Mob-5-AP, but not hMob-5-AP, binds specifically to the cell surface of oncogenic h-ras transformed RIE cells. Both the normal and oncogenic h-ras transformed RIE cells were analyzed for the ability to bind Mob-5-AP versus AP alone. The same experiment was carried out with hMob-5-AP and AP alone. The cell surface bound AP activity was measured to reveal a species specific Mob-5 binding activity present only on the cell surface of the h-ras transformed RIE cells. The result is representative of at least 3 independent experiments.
As in Rat-1 cells, the putative Mob-5 receptor was also found to be differentially expressed between the normal and h-ras transformed RIE cells using Mob-5-AP fusion protein as a ligand (FIG. 4E, left panel). To determine whether hMob-5-AP could also differentially bind to the cell surface of h-ras transformed RIE cells, the receptor binding assay was conducted using hMob-5-AP in place of Mob-5-AP.
mob-5 expression is activated by both oncogenic h-ras and k-ras in intestinal epithelial cells Cancer arises from the epithelial cells rather than fibroblasts and K-ras mutations have been tightly linked with cancers of gastric intestinal origins (Kiaris and Spandidos, 1995). […] After the final 5 min extension at 72 ° C., the RT-PCR products were analyzed on a 1.5 % agarose gel. […]

The values below come from US20040019193A1, “Mob-5/hmob-5 as a cancer diagnostic marker” (priority 2002, published 2004).

For the molecule `COc1cccc(-c2cc(=O)c3ccccc3o2)c1N` [PD98059], in the assay on mob-5, the “mob-5 expression (differential display)” value is on record as “inactivated”.

B1: Mob-5-AP: rat Mob-5-alkaline phosphatase fusion protein, secreted, 90 KD (SEQ ID NO: 8) (protein)
chain: MQTSLRQQILPGLSLILLVLNQVPELQGQEFRFGPCQVTGVVLPELWEAFWTVKNTVKTQDELTSVRLLKPQVLQNVSDAESCYLAHSLLKFYLNTVFKNYHSKIVKFKVLKSFSTLANNFLVIMSKLQPSKDNAMLPISDSARRRFLLYHRTFKQLDIEVALAKAFGEVDILLAWMQNFYQLGSSGIIPVEEENPDFWNREAAEALGAAKKLQPAQTAAKNLIIFLGDGMGVSTVTAARILKGQKKDKLGPEIPLAMDRFPYVALSKTYNVDKHVPDSGATATAYLCGVKGNFQTIGLSAAARFNQCNTTRGNEVISVMNRAKKAGKSVGVVTTTRVQHASPAGTYAHTVNRNWYSDADVPASARQEGCQDIATQLISNMDIDVILGGGRKYMFPMGTPDPEYPDDYSQGGTRLDGKNLVQEWLAKRQGARYVWNRTELMQASLDPSVTHLMGLFEPGDMKYEIHRDSTLDPSLMEMTEAALRLLSRNPRGFFLFVEGGRIDHGHHESRAYRALTETIMFDDAIERAGQLTSEEDTLSLVTADHSHVFSFGGYPLRGSSIFGLAPGKARDRKAYTVLLYGNGPGYVLKDGARPDVTESESGSPEYRQQSAVPLDEETHAGEDVAVFARGPQAHLVHGVQEQTFIAHVMAFAACLEPYTACDLAPPAGTTDAAHPG
Take B1: the “cell surface binding (bound AP activity) versus AP alone” value in assay [1] was “preferentially bound to the cell surface of the h-ras transformed Rat-1 cells, but not of the parental control”; in assay [2], “binds specifically only to the ras transformed RIE cells”.
